Source: US20250009854A1
pIC50: −log10 of the molar value.

Target: NL63 trimer (human coronavirus NL63)

flACE2-Fc-WT (Fc fusion)
pIC50: 7.28

trACE2-Fc-WT (Fc fusion)
pIC50: 7.00
